Assay results from patent US20250304679A1 (LTZ THERAPEUTICS, published 2025).
Changes are numbered by the printed parent chain. Values belong to the binder of their own block, whether it stands above or below them.

Tests used:
[1] = biological target: CD3 on Jurkat-Lucia NFAT reporter T lymphocytes (UniProt P07766 23-207); assay: cell-based or functional assay
[2] = biological target: T1, antigen on malignant B cell lines (BJAB, Daudi, SUDHL-4, Nalm-6) bound by Mosunetuzumab, not named in the …; assay: flow cytometry (MFI of PE) on Daudi cells
T1 chain: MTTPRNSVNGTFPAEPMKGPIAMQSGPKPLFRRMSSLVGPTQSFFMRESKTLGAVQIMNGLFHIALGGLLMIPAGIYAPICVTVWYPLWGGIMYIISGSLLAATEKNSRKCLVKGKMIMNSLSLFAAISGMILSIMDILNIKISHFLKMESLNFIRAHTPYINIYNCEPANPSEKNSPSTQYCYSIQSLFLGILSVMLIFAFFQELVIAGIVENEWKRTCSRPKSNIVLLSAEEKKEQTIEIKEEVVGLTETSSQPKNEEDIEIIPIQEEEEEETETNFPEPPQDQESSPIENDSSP
Description: (§1) To evaluated the affinities of chCD79b×msnCD3 antibodies to malignant B cell lines. BJAB, Daudi, SUDHL-4 and Nalm-6 cells were purchased from ATCC. For each different cell line, 5×10⁴ cells were mixed with serially diluted antibodies Pola/msnCD3, 22D10/msnCD3, 44G2/msnCD3, 48H10/msnCD3 and 57B9/msnCD3, Mosunetuzumab, and negative control Human IgG Isotype Control (Invitrogen Catalog #02-7102) and incubated on ice for 30 minutes. After incubation, cells were washed twice and detected with an anti-human IgG PE secondary antibody (ebioscience. Cat: 12-4998-82). For analysis, the mean fluorescence intensity (MFI of PE) of each antibody was determined and plotted using GraphPad prism software (version 10.10.1; GraphPad Software Inc).

[3] = biological target: T1, antigen on malignant B cell lines …; assay: flow cytometry (MFI of PE) on BJAB cells
Description: as §1

[4] = biological target: T1, antigen on malignant B cell lines …; assay: flow cytometry (MFI of PE) on SUDHL-4 cells
Description: as §1

[5] = biological target: T2, CD79b on malignant B cell lines (BJAB, Daudi, SUDHL-4, Nalm-6) (UniProt P40259 29-229, limits assumed); assay: flow cytometry (MFI of PE) on Nalm-6 cells
T2 construct: whole, on cells; also called malignant B cells
T2 sequence (looked up): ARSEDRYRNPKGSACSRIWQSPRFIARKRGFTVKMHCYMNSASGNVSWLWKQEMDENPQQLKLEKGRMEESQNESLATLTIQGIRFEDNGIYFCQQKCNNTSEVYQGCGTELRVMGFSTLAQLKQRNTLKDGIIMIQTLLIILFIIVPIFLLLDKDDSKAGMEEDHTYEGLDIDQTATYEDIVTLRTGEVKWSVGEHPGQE
Description: as §1

[6] = biological target: T2, CD79b on malignant B cell lines (BJAB, …); assay: flow cytometry (MFI of PE) on Daudi cells
Description: as §1

[7] = biological target: T2, CD79b on malignant B cell lines (BJAB, …); assay: flow cytometry (MFI of PE) on BJAB cells
Description: as §1

[8] = biological target: T2, CD79b on malignant B cell lines (BJAB, …); assay: flow cytometry (MFI of PE) on SUDHL-4 cells
Description: as §1

Chain of CD3 on Jurkat-Lucia NFAT reporter T lymphocytes (P07766 23-207): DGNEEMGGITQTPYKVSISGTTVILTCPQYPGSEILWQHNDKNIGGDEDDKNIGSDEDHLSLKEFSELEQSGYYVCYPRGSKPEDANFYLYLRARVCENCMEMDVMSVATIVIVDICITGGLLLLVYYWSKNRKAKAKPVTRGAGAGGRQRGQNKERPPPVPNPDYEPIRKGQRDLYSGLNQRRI

EC50 [5]: 9.53 nM
T cell activation effect, NFAT-Luc reporter, EC50 nM [1]: 1.12 nM
EC50 [6]: 0.614 nM
EC50 [7]: 4.33 nM
EC50 [8]: 1.73 nM
B3: 44G2/msnCD3 (bispecific antibody, human IgG1, kappa, N297G)
light: DLVMTQTPSSVSAAVGGTVSINCRASEDIENYLAWYQQKPGQPPKLLIYRASTLSSGVSSRFSGSGSGTEFTLTISGVQPDDAATYYCQQGYRNSNVDNPFGGGTEMVVKRTVAAPSVFIFPPSDEQLKSGTASVVCLLNNFYPREAKVQWKVDNALQSGNSQESVTEQDSKDSTYSLSSTLTLSKADYEKHKVYACEVTHQGLSSPVTKSFNRGEC
heavy: QSVRETGGGLVQPGGSLKLSCKASGFTINIDYWISWVRQAPGKGLEWIGIIDPGDGTTYFAIWVNGRFTISFDNTQNTVDLQMNSLTAADTATYFCVREFSASAYQYDLWGPGTLVTVSSASTKGPSVFPLAPSSKSTSGGTAALGCLVKDYFPEPVTVSWSSGALTSGVHTFPAVLQSSGLYSLSSVVTVPSSSLGTQTYICNVNHKPSNTKVDKKVEPKSCDKTHTCPPCPAPELLGGPSVFLFPPKPKDTLMISRTPEVTCVVVDVSHEDPEVKFNWYVDGVEVHNAKTKPREEQYGSTYRVVSVLTVLHQDWLNGKEYKCKVSNKALPAPIEKTISKAKGQPREPQVYTLPPSRDELTKNQVSLSCAVKGFYPSDIAVEWESNGQPENNYKTTPPVLDSDGSFFLVSKLTVDKSRWQQGNVFSCSVMHEALHNRFTQKSLSLSPGK
chain: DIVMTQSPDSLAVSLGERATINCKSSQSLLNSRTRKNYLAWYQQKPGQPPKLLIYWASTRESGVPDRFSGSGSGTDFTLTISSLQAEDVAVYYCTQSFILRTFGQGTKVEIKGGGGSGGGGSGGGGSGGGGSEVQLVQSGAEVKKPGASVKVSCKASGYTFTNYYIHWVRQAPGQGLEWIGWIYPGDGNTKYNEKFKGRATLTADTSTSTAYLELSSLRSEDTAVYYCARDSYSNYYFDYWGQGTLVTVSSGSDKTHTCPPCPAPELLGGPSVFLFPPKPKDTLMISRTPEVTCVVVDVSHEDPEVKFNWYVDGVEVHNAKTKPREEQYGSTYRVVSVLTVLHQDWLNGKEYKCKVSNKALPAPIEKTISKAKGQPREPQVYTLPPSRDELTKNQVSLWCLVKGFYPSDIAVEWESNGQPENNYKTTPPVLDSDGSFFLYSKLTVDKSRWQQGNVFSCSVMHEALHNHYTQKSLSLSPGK
notes: also called CD79b/CD3 bispecific antibody; chCD79b×msnCD3

T cell activation effect, NFAT-Luc reporter, EC50 nM [1]: ~15.4 nM
EC50 [6]: 4.04 nM
EC50 [7]: 18.9 nM
EC50 [8]: 15.5 nM
B5: Pola/msnCD3 (bispecific antibody, human IgG1, kappa, N297G)
light: DIQLTQSPSSLSASVGDRVTITCKASQSVDYEGDSFLNWYQQKPGKAPKLLIYAASNLESGVPSRFSGSGSGTDFTLTISSLQPEDFATYYCQQSNEDPLTFGQGTKVEIKRTVAAPSVFIFPPSDEQLKSGTASVVCLLNNFYPREAKVQWKVDNALQSGNSQESVTEQDSKDSTYSLSSTLTLSKADYEKHKVYACEVTHQGLSSPVTKSFNRGEC
heavy: EVQLVESGGGLVQPGGSLRLSCAASGYTFSSYWIEWVRQAPGKGLEWIGEILPGGGDTNYNEIFKGRATFSADTSKNTAYLQMNSLRAEDTAVYYCTRRVPIRLDYWGQGTLVTVSSASTKGPSVFPLAPSSKSTSGGTAALGCLVKDYFPEPVTVSWSSGALTSGVHTFPAVLQSSGLYSLSSVVTVPSSSLGTQTYICNVNHKPSNTKVDKKVEPKSCDKTHTCPPCPAPELLGGPSVFLFPPKPKDTLMISRTPEVTCVVVDVSHEDPEVKFNWYVDGVEVHNAKTKPREEQYGSTYRVVSVLTVLHQDWLNGKEYKCKVSNKALPAPIEKTISKAKGQPREPQVYTLPPSRDELTKNQVSLSCAVKGFYPSDIAVEWESNGQPENNYKTTPPVLDSDGSFFLVSKLTVDKSRWQQGNVFSCSVMHEALHNRFTQKSLSLSPGK
chain: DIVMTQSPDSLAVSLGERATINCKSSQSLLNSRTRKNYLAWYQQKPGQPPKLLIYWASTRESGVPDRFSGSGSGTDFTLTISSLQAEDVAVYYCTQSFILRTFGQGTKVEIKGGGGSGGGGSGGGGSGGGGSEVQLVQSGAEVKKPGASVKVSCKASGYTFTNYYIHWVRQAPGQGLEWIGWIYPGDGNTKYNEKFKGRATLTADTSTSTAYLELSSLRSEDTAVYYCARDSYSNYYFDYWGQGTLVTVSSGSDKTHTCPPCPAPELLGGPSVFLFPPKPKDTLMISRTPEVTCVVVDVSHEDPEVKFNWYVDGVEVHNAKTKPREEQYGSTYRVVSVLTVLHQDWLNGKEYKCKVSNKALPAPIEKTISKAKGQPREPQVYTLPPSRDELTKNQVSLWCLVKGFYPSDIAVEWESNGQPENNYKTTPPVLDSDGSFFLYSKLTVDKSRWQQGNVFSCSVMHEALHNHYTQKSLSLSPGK
notes: as for B3

More lines, now with the values behind:

B1: Mosunetuzumab (bispecific antibody)
chain 1: not shown
chain 2: DIQMTQSPSSLSASVGDRVTITCRASSSVSYMHWYQQKPGKAPKPLIYAPSNLASGVPSRFSGSGSGTDFTLTISSLQPEDFATYYCQQWSFNPPTFGQGTKVEIKRTVAAPSVFIFPPSDEQLKSGTASVVCLLNNFYPREAKVQWKVDNALQSGNSQESVTEQDSKDSTYSLSSTLTLSKADYEKHKVYACEVTHQGLSSPVTKSFNRGEC
chain 3: EVQLVQSGAEVKKPGASVKVSCKASGYTFTNYYIHWVRQAPGQGLEWIGWIYPGDGNTKYNEKFKGRATLTADTSTSTAYLELSSLRSEDTAVYYCARDSYSNYYFDYWGQGTLVTVSSASTKGPSVFPLAPSSKSTSGGTAALGCLVKDYFPEPVTVSWNSGALTSGVHTFPAVLQSSGLYSLSSVVTVPSSSLGTQTYICNVNHKPSNTKVDKKVEPKSCDKTHTCPPCPAPELLGGPSVFLFPPKPKDTLMISRTPEVTCVVVDVSHEDPEVKFNWYVDGVEVHNAKTKPREEQYGSTYRVVSVLTVLHQDWLNGKEYKCKVSNKALPAPIEKTISKAKGQPREPQVYTLPPSREEMTKNQVSLSCAVKGFYPSDIAVEWESNGQPENNYKTTPPVLDSDGSFFLVSKLTVDKSRWQQGNVFSCSVMHEALHNHYTQKSLSLSPGK
chain 4: not shown
T cell activation effect, NFAT-Luc reporter, EC50 nM [1]: 2.06 nM
EC50 [2]: 13.7 nM
EC50 [3]: 50.4 nM
EC50 [4]: 30.6 nM

B2: 57B9/msnCD3 (bispecific antibody, human IgG1, kappa, N297G)
light: ALVMTQTPSSVSADVGGTVSINCQASEDIESYLAWYQQKPGQPPKLLIYFTSNLASGVPSRFKGSGSGTEYTLTISGVQPDDAATYYCQQGYRNSDVHNPFGGGTEVVVKRTVAAPSVFIFPPSDEQLKSGTASVVCLLNNFYPREAKVQWKVDNALQSGNSQESVTEQDSKDSTYSLSSTLTLSKADYEKHKVYACEVTHQGLSSPVTKSFNRGEC
heavy: QSVRETGGGLVQPGGSLTLSCEASEFTINIDYWISWVRQAPGKGLEWIGIIDPGDGTTYFAIWVNGRFTITRNTNLNTVDLKMTSLTEADTATYFCAREVSASAYQYDLWGPGTLVTVSSASTKGPSVFPLAPSSKSTSGGTAALGCLVKDYFPEPVTVSWSSGALTSGVHTFPAVLQSSGLYSLSSVVTVPSSSLGTQTYICNVNHKPSNTKVDKKVEPKSCDKTHTCPPCPAPELLGGPSVFLFPPKPKDTLMISRTPEVTCVVVDVSHEDPEVKFNWYVDGVEVHNAKTKPREEQYGSTYRVVSVLTVLHQDWLNGKEYKCKVSNKALPAPIEKTISKAKGQPREPQVYTLPPSRDELTKNQVSLSCAVKGFYPSDIAVEWESNGQPENNYKTTPPVLDSDGSFFLVSKLTVDKSRWQQGNVFSCSVMHEALHNRFTQKSLSLSPGK
chain: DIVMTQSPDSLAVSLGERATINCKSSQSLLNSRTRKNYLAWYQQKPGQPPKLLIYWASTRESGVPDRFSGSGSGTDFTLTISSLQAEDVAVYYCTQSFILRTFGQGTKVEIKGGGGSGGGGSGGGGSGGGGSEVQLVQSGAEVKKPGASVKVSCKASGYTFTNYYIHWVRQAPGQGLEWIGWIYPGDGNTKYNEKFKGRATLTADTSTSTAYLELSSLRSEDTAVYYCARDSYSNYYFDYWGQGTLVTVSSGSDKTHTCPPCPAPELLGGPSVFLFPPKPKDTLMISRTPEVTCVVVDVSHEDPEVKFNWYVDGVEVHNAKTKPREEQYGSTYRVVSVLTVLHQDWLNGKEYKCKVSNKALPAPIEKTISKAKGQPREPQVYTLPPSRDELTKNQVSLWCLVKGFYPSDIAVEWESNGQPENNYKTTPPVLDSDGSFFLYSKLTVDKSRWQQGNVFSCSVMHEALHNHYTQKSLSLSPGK
notes: also called 57B9/mscCD3; CD79b/CD3 bispecific antibody
EC50 [5]: 9510 nM
T cell activation effect, NFAT-Luc reporter, EC50 nM [1]: ~24 nM
EC50 [6]: 4.59 nM
EC50 [7]: 15.1 nM
EC50 [8]: 11.9 nM

B4: 48H10/msnCD3 (bispecific antibody, human IgG1, kappa, N297G)
light: B3 light with D1A, R24Q, N31S, A34T, I48M, G64A, S95K, N96D, M107V
heavy: B3 heavy with R4K, K18T, F72T, T75A, V97A
chain: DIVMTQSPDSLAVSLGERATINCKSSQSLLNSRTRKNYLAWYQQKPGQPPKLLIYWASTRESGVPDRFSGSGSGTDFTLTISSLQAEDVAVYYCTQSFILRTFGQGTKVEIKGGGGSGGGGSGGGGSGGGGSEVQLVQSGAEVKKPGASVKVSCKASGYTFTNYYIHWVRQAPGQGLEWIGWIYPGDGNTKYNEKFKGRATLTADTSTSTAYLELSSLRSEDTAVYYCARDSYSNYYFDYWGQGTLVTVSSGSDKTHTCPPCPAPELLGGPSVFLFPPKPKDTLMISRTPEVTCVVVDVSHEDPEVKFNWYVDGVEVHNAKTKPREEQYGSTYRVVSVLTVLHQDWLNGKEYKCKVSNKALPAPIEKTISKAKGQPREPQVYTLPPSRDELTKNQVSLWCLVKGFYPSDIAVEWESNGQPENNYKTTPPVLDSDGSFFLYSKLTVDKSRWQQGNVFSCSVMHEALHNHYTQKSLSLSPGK
notes: as for B3
EC50 [5]: 19 nM
T cell activation effect, NFAT-Luc reporter, EC50 nM [1]: 1.91 nM
EC50 [6]: 1.28 nM
EC50 [7]: 2.88 nM
EC50 [8]: 3.23 nM

B6: 22D10/msnCD3 (bispecific antibody, human IgG1, kappa, N297G)
light: ALVMTQTPSSVSAAVGGTVTINCRASEDIERYLAWYQQKPGQRPKLLIYGASTLASGVPSRFKGSGSGTEYTLTISGVQPDDAATYYCHQGDSSRNVVNVFGGGTEVVVKRTVAAPSVFIFPPSDEQLKSGTASVVCLLNNFYPREAKVQWKVDNALQSGNSQESVTEQDSKDSTYSLSSTLTLSKADYEKHKVYACEVTHQGLSSPVTKSFNRGEC
heavy: QSVEESGGRLVTPGTPLTLTCTASGFTINDYHMNWVRQAPGKGLEWIGIISSNGDTYYASWAKGRFTISRTSTTVDLKMTSLTTEDTATYFCARDDRDRSYAFDPWGPGTLVTVSSASTKGPSVFPLAPSSKSTSGGTAALGCLVKDYFPEPVTVSWSSGALTSGVHTFPAVLQSSGLYSLSSVVTVPSSSLGTQTYICNVNHKPSNTKVDKKVEPKSCDKTHTCPPCPAPELLGGPSVFLFPPKPKDTLMISRTPEVTCVVVDVSHEDPEVKFNWYVDGVEVHNAKTKPREEQYGSTYRVVSVLTVLHQDWLNGKEYKCKVSNKALPAPIEKTISKAKGQPREPQVYTLPPSRDELTKNQVSLSCAVKGFYPSDIAVEWESNGQPENNYKTTPPVLDSDGSFFLVSKLTVDKSRWQQGNVFSCSVMHEALHNRFTQKSLSLSPGK
chain: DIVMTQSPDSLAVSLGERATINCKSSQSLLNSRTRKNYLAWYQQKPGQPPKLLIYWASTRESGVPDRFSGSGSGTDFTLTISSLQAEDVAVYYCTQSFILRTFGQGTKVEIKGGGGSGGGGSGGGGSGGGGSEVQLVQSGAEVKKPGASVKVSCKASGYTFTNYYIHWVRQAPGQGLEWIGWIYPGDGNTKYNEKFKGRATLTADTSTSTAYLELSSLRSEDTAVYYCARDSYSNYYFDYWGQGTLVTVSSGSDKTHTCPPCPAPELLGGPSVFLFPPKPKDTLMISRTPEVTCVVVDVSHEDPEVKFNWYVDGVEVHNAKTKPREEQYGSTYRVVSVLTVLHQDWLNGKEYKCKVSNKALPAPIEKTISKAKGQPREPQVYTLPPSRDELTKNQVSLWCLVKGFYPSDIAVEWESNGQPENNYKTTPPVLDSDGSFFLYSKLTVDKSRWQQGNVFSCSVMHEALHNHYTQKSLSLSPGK
notes: as for B3
T cell activation effect, NFAT-Luc reporter, EC50 nM [1]: 866 nM
EC50 [6]: 17.1 nM
EC50 [7]: 1.24 nM
